The test addresses DexA (bacteriophage T4). Put plainly: SEC; Äkta pure, HiLoad 16/600 Superdex 75 pg (Cef, MRH, Pin, DexA) or Superdex 200 pg (Y04L, Gp57B), in the respective dialysis buffers (Supplementary Table 3). For orientation: In gel filtration, larger molecules generally elute earlier.

Chain of DexA (P04536 whole entry): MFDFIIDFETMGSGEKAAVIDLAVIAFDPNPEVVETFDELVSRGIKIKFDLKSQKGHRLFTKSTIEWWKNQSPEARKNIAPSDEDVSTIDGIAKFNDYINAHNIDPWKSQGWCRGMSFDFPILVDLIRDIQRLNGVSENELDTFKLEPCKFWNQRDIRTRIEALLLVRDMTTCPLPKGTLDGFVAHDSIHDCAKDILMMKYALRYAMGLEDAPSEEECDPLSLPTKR

As a reminder, the stoichiometry N is the number of molecules, sites or subunits per partner or assembly. The substance DexA (enzyme) had a stoichiometry N of 2.

(Values after PMC8076793.)
